Test results: patent publication US6420157B1, “Zymogen activation system” (Ortho-McNeil Pharmaceutical, Inc., priority 1999, dated 2002)

What was measured:
Type in all cases: biochemical
Settings in all cases: EK-activated protease; substrate 500 uM; pH 7.8; 37° C.; 120 minutes
[1] = Chromogenic amidolytic assay, release of pNA from H-D-Lys(CBO)-Pro-Arg-pNA
Protocol: (§1) Cells were lysed on ice in 20 mM Tris (pH7.4), 150 mM NaCl, 1% Triton X-100, 1 mM EDTA, 1 mM EGTA, 1 mM PMSF, leupeptin (1 μg/ml), and pepstatin (1 μg/ml). Cell lysates were mixed with anti-FLAG M2 affinity gel (Eastman Kodak Co., New Haven, Conn.) and bound at 4° C. for 3 hours with gentle rotation. The zymogen-bound resin was washed 3 times with TBS buffer (50 mM Tris-HCl, 150 mM NaCl at a final pH of 7.5), and eluted by competition with FLAG peptide (100 μg/ml) in TBS buffer. The eluted zymogen was dialyzed overnight against TBS in Spectra/Por membrane (MWCO: 12,000-14,000) (Spectra Medical Industries, Inc., Huston, Tex.). […] Eluted protein concentration was determined by a Micro BCA Kit (Pierce, Rockford, Ill.) using bovine serum albumin as a standard. Amidolytic activities of the activated protease was monitored by release of para-nitroaniline (pNA) from the synthetic substrates indicated in Table 2. […] Release of pNA was measured over 120 minutes at 37° C. on a micro-plate reader (Molecular Devices, Menlo Park, Calif.) with a 405 nm absorbance filter. The initial reaction rates (Vmax, mOD/min) were determined from plots of absorbance versus time using Softmax (Molecular Devices, Menlo Park, Calif.). […] No measurable chromogenic amidolytic activity was detected with the purified unactivated zymogens. […]

[2] = Chromogenic amidolytic assay, release of pNA from H-DL-Val-Leu-Arg-pNA
Protocol: as §1

[3] = Chromogenic amidolytic assay, release of pNA from H-D-Val-Leu-Lys-pNA
Protocol: as §1

[4] = Chromogenic amidolytic assay, release of pNA from H-D-Pro-HHT-Arg-pNA
Protocol: as §1

B1: PFEK-MH2-6XHIS: catalytic domain of human protease MH2 in the PFEK1-6XHIS-TAG activation construct (SEQ.ID.NO.:54), EK-activated (protein)
chain: MDSKGSSQKSRLLLLLVVSNLLLCQGVVSDYKDDDDVDAAALAAPFDDDDKIVGGYNCLEPHSQPWQAALVMENELFCSGVLVHPQWVLSAAHCFQNSYTIGLGLHSLEADQEPGSQMVEASLSVRHPEYNRPLLANDLMLIKLDESVSESDTIRSISIASQCPTAGNSCLVSGWGLLANGRMPTVLQCVNVSVVSEEVCSKLYDPLYHPSMFCAGGGHDQKDSCNGDSGGPLICNGYLQGLVSFGKAPCGQVGVPGVYTNLCKFTEWIEKTVQASSRHHHHHH
[1]
  specific activity, H-D-Lys(CBO)-Pro-Arg-pNA: 0.893 nmole pNA produced /min/ug protein
[2]
  specific activity, H-DL-Val-Leu-Arg-pNA: 0.058 nmole pNA produced /min/ug protein
[3]
  specific activity, H-D-Val-Leu-Lys-pNA: 0.121 nmole pNA produced /min/ug protein
[4]
  specific activity, H-D-Pro-HHT-Arg-pNA: 0.052 nmole pNA produced /min/ug protein
